Ends that are not written are not given here.
B1: TFF2: trefoil factor family secretory peptide 2 (protein, UniProt Q03403 24-129, looked up)
Trefoil factor 2: EKPSPCQCSRLSPHNRTNCGFPGITSDQCFDNGCCFDSSVTGVPWCFHPLPKQESDQCVMEVSDRRNCGYPGISPEECASRKCCFSNFIFEVPWCFFPKSVEDCHY

Experiments:
[1] = tested on: gastrointestinal proteases; conditions: ref [17]-[21]; cited from earlier work
Source text: (§1) Many secretory proteins contain disulfide bonds, with most formed during folding in the endoplasmic reticulum. The trefoil factor family (TFF) is a highly relevant example of such secretory peptides in humans, with three characteristic peptides (TFF1, TFF2, TFF3) produced by mucous epithelia. They are most abundantly secreted throughout different compartments of the gastrointestinal tract, where they have important functions in protecting the epithelium barrier and maintaining mucosal epithelial homeostasis. Each member of the family has at least one highly conserved TF ...

[2] = monomer and homodimer TFF3 domains; reduced glutathione 10 equivalents, 100 μM, pH 7; ref [22]; cited from earlier work
Source text: as §1

[3] = Reductive stability of disulfide bonds: TCEP reduction, IAM alkylation, LC-MS; format: physicochemical; conditions: chemical stability to reduction, 30 min, room temperature (25 °C), then IAM 100 eq/Cys 5 min, TFA quench; for Reduction and alkylation of disulfide bonds with 5 equivalents of TCEP: peptide 150 μM in 100 mM tris.HCl pH 7.4, 5 molar equivalents TCEP per peptide; for Reduction and alkylation of disulfide bonds with 15 equivalents of TCEP: peptide 150 μM in 100 mM tris.HCl pH 7.4, 15 molar equivalents TCEP per peptide; for Reduction and alkylation of disulfide bonds with 150 equivalents of TCEP: peptide 150 μM in 100 mM tris.HCl pH 7.4, 150 molar equivalents TCEP per peptide
Method: Peptides were purified by preparative RP-HPLC using a C5 column (Phenomenex Luna; 10 μm, 21.2 mm ID × 250 mm; flow rate 20 mL/min) on a Shimadzu LC-20A system running a linear gradient of solvents A (0.1 % TFA (aq) and B (90 % acetonitrile (aq)/0.1 % TFA). Fractions were analyzed by liquid chromatography-mass spectrometry (LC-MS), and those containing the desired peptide and >95 % purity were pooled and lyophilized. LC-MS analyses were performed on a C18 column (Agilent Eclipse Plus; […], 2.1 mm ID x 50 mm; flow rate 0.25 mL/min), using a QSTAR Elite electrospray ionization quadrupole time-of-flight (ESI QqTOF) mass spectrometer (SCIEX) linked to an upstream Shimadzu LC-20A HPLC system. HPLC solvents were the same as described previously, substituting formic acid for TFA. Peptides were separated on a gradient of 2–60 % B over 10 min and analyzed over a mass range of 200–2000 amu.
Peptides (TFF1, linaclotide, or BPTI) were dissolved to a concentration of 150 μM in 100 mM tris.HCl, pH 7.4. TCEP and IAM were prepared as separate 0.5 M solutions in 100 mM tris.HCl and the pH of all solutions were adjusted with concentrated KOH to pH 7.4. 25 μL of peptide (3.75 nmol) were treated with 0.5 M TCEP (0–150 molar equivalents per peptide). The samples were incubated at room temperature (25 °C) for 30 min, whereby they were treated with 5 μL (2.5 μmol; 100 eq/Cys) IAM for 5 min, followed by quenching with 5 μL TFA to reduce the pH to 2–3. Samples were then analyzed by LC-MS.

Molecule	Resistance of the TFF domain to gastrointestinal proteases [1]	Persistence of disulfide bonds in the presence of reduced glutathione [2]	Reduction and alkylation of disulfide bonds with 5 equivalents of TCEP [3]	Reduction and alkylation of disulfide bonds with 15 equivalents of TCEP [3]	Reduction and alkylation of disulfide bonds with 150 equivalents of TCEP [3]
TFF3: trefoil factor family secretory peptide 3, with TFF domain (EEYVGLSANQCAVPAKDRVDCGYPHVTPKECNNRGCCFDSRIPGVPWCFKPLQEAECTF; ends and bridges not checked; also: three intramolecular disulfides in TFF domain, pairing not given here; UniProt Q07654 22-80, looked up)	resistance	no disulfide bond reduction or scrambling detected			
bovine pancreatic trypsin inhibitor [BPTI]			complete reduction and alkylation of a single disulfide bond	no further reduction	No further reduction
linaclotide			partial reduction and alkylation of a single disulfide bond	fully reduced and alkylated	fully reduced and alkylated
B1	resistance				
